From patent US20030171295A1

Molecular target: human melanocortin 1 receptor (hMC1-r transfected COS-7 cells) (human) (UniProt Q01726)
Assay: Scatchard analysis on MC1-r transfected COS7 cells, culture supernatant with up to 30 nM AP-Ag

Substance: AP-Ag, truncated agouti protein containing the cysteine-rich domain tagged with alkaline phosphatase at its N-terminal (from UniProt Q03288) (ligand)
- Kd: 20 to 30 nM
